Consider 14 molecules from US20230174670A1 (JIANGSU HENGRUI PHARMACEUTICALS, published 2023).

Test [1] addresses T1, human CD25 on cells (human, UniProt P01589 22-272).
T1 sequence (looked up): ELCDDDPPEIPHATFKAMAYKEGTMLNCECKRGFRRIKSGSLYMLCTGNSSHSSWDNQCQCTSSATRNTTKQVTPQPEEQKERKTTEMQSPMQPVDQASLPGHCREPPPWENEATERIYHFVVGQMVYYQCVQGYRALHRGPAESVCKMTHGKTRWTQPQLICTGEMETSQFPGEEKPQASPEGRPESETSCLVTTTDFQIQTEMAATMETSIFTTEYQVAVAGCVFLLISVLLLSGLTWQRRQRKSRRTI
In words: cell-based or functional assay.

The target in test [2] is T1, human CD25 on cells. Nature of the test: flow cytometry on SU-DHL-1 cells.
Method: Since the lymphoma cell line SU-DHL-1 highly expresses CD25, the binding of chimeric anti-CD25 antibodies to SU-DHL-1 cells was determined by flow cytometry. SU-DHL-1 cells in logarithmic growth phase were selected, collected, washed with PBS, and centrifuged. Each well was plated with 100 μL of 2×10⁵ cells and centrifuged at 400 g for 5 min. The test antibodies at different concentrations were added, incubated on ice for 1 h, washed with PBS, and centrifuged at 400 g for 5 min.
Test [3] deals with T2, recombinant human CD25-His protein (human, UniProt P01589 22-213).
T2 construct: range 22-213; Purchased from Sino Biological Inc. Printed construct Met1-Cys213 includes the signal peptide
T2 sequence (looked up): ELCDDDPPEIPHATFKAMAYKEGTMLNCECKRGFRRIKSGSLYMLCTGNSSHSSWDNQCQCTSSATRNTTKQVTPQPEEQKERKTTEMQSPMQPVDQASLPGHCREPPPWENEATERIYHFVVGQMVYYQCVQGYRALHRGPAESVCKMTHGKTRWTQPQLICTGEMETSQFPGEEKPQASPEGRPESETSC
Nature of the test: ELISA, plate coated with human CD25-His.
Method: (§1) The binding activity of the chimeric anti-CD25 antibody and the CD25 recombinant protein was assayed by ELISA. The 96-well plate was coated with human CD25-His/monkey CD25-His at a concentration of 1 g/mL at 50 μL/well. The unbound antigen was washed away with a washing solution (1×PBST). After washing, the plate was blocked with 1% BSA blocking solution prepared in 1×PBST at 37° C. for 1 h. After washing 3 times with the washing solution, the test chimeric antibodies at different dilution concentrations was added and incubated in an incubator at 37° C. for 1 h. After washing 3 times with the washing solution, 100 μL of goat anti-human IgG secondary antibody diluted at 1:5000 was added and incubated in an incubator at 37° C. for 0.5 h. The plate were washed, the TMB color developing solutions A and B were mixed in a 1:1 ratio for color development. After 15 min, the color development reaction was terminated with 1M hydrochloric acid, and the fluorescence value at 450 nm was measured.

Test [4] has as its target T3, recombinant monkey CD25-His protein (monkey (cynomolgus), UniProt H6WS54 1-213).
T3 construct: range 1-213; also called cynomolgus monkey (Cyno) CD25
T3 sequence: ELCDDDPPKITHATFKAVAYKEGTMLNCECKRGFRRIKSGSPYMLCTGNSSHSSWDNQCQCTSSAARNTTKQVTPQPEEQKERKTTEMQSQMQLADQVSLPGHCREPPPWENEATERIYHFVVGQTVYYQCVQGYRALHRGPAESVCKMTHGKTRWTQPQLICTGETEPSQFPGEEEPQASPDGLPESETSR
Nature of the test: ELISA, plate coated with monkey CD25-His. On the technique in general: In an ELISA, binding on a coated surface is turned into a signal by an enzyme label.
Method: as §1

B1: PR058 (antibody, human IgG1, kappa, V domains shown)
VH: EVQLVESGGGLVQPGGSLRLSCAASGFTFSSYAMSWVRQAPGKRLEWVATISEGGSYTYYPDNVKGRFTISRDNSKNTLYLQMNSLRAEDTAVYLCVRDNPWFAYWGQGTLVTVSS
VL: DVLMTQSPLSLPVTPGEPASISCRSSQNIVHSNGNTYLEWFLQKPGQSPKLLIYKVSKRFSGVPDRFSGSGSGTDFTLKISRVEAEDVGVYYCFQGSHVPYTFGGGTKVEIKR
As for B1, the “ADCC activity, Multiple of maximum fluorescence value (vs. IgG)” value (shortened to “ADCC activity, Multiple … (vs. IgG)”) with human CD25 on cells [1] worked out at 386 fold.

B2: 7G7B6 (antibody, V domains shown)
VH: EVQLVESGGDLVQPRGSLKLSCAASGFTFSSYGMSWVRQTPDKRLELVATINGYGDTTYYPDSVKGRFTISRDNAKNTLYLQMSSLKSEDTAMYFCARDRDYGNSYYYALDYWGQGTSVTVSS
VL: QIVLSQSPAILSASPGERVTMTCRASSSVSFMHWLQQKPGSSPKPWIYATSNLASGVSARFSGSGSGTSYSLTITRVEAEDAATYYCQQWSSNPPAFGGGTKLEIK
As for B2, in the test with human CD25 on cells [1], the “ADCC activity, Multiple … (vs. IgG)” value is 13.3 fold.

B3: cAb037 (antibody, human IgG1, V domains shown)
VH: QVRLQQSGPELVKPGASVQMSCKASGYTFTDYYINWVKQRPGQGLEWIAWIFPGNGNTYFNENFKDKATLSVDKFSSTAFMLLSSLTSEDSAVYFCARATYDHGGYWYFDVWGTGTTVTVSS
VL: QIVLSQSPAILSASPGEKVTMTCRASSSVSHIHWYQQKPGSSPKPWIYATSNLASGVPGRFSGSGSGTSYSLTVSRVEAEDAATYYCQHWNSFTFGGGTELELK
notes: also called mAb037/cAb037
In the case of B3, the values for the EC50 (in the test with human CD25 on cells [2]; in test [3]; in test [4]) were 150 pM, 165 pM and 147 pM, respectively.

B4: cAb042 (antibody, human IgG1, V domains shown)
VH: QVQLQQSGPELVKSGASVKLSCKASGYTFTTYDINWMKQRPGQGLEWIGWIYPRDGSTKYNAKFKGKATLTEDTSSNTAFMELHSLTSEDSAVYFCARERIYDGSFDYWGQGTTLTVSS
VL: DIVMTQSPSSLSVSAGEKVSMRCKSSQRLFNSRDQKNYLAWYQQKPGQPPKLLIYGASTRESGVPDRFTGSGSGTDFTLTISSVQAEDLAVYYCQNDHIYPLTFGAGTKLELK
notes: also called mAb042/cAb042
B4: the EC50 with human CD25 on cells [2] was 501 pM; in test [3] it was 224 pM; in test [4], 349 pM.

B5: PR006 (antibody, human IgG1, kappa, V domains shown)
VH: EVQLVQSGAEVKKPGASVKVSCKASGYTFTGHWIEWVRQAPGQGLEWMGEILPGSNKINYNEKFKGRVTFTADTSTSTVYMELSSLRSEDTAVYYCAGGGGPHWPFAFWGQGTLVTVSS
VL: DIVMTQSPDSLAVSLGERATINCRASESVNVHGAHLMHWYQQKPGQPPKLLIYAASILESGVPDRFSGSGSGTDFTLTISSLQAEDVAVYYCQQTIEDPRTFGGGTKVEIKR
For the molecule B5, the “ADCC activity, Multiple … (vs. IgG)” value with human CD25 on cells [1] was 239 fold.

B6: cAb006 (antibody, human IgG1, V domains shown)
VH: QIQLQQSGAELMKPGASVKLSCKATGYTFTGHWIEWVKQRPGHGLEWVGEILPGSNKINYNEKFKGKATFTAETSSNTVYMQLSSLTTEDSAIYYCAGGGGPHWPFAFWGQGSLVTVSA
VL: DIVLTQSPASLTVSLGQRATISCRASESVNVHGAHLMHWYQQKPGQPPKLLIYAASILESGVPARFSGSGSETDFTLNIHPVEEEDAATYFCQQTIEDPRTFGGGTKLEIK
notes: also called mAb006/cAb006
Turning to B6, the EC50 with human CD25 on cells [2] was determined as 329 pM; in test [3], 200 pM; in test [4], 234 pM.

B7: cAb001 (antibody, V domains shown)
VH: QVTLKESGPGILQPSQTLSLTCSFSGFSLNTFGMGVGWIRQPSGKGLEWLAHIWWDDDKYYNPALKSRLTISKDTSKNQVFLKIANVDTADTVTYYCARITTEVGNYDVWGMGTTVTVSS
VL: EIVLTQSPALMAASPGEKVTITCSVSSGITSNNLHWYQQKSETSPKPWIYGTSNLASGVPIRFSGSGSGTSYSLTISSMEAEDAATYYCQQWSSYPFTFGSGTKLEIK
notes: also called mAb001/cAb001
In the case of B7, the concentration for a half-maximal effect (EC50) with human CD25 on cells [2] was determined as 180 pM; in test [3], 228 pM; in test [4] it was 399 pM.

B8: cAb029 (antibody, human IgG1, V domains shown)
VH: QVTLKESGPGILQPSQTLSLTCSFSGFSLSTFGMGVGWIRQPSGKGLEWLAHIWWDDDEYYNPALKSRLTISKDTSKNQVFLKIANVDTADTATYYCTRIMLTTGYFDVWGTGTTVTVSS
VL: EIVLTQSPALMAASPGEKVTITCTVSSGITSSNLHWYQQKSETSPKPWIYGTSNLASGVPVRFSGSGSGTSYSLTISSMEAEDAATYYCQQWSSYPFTFGSGTRLEIK
notes: also called mAb029/cAb029
Regarding B8, the EC50 with human CD25 on cells [2] worked out at 119 pM; in test [3], 166 pM; in test [4], 114 pM.

B9: cAb002 (antibody, human IgG1, V domains shown)
VH: QVTLKESGPGILQPSQTLSLTCSFSGFSLSTFGLGVGWIRQPSGKGLEWLAQIWWDDDEYYNPALKSRLTISKDTSRNQVFLKIANVDTGDTATYFCARMGDTYWYFDVWGTGTTVAVSS
VL: EIVVTQSPALMAVSPGEKVTITCSLSSGITSSNLHWYQQKSETSPKPWIYGTSNLASGVPVRFSGSGSKTSYSLTISSMEAEDAATYYCQQWSSYPFTFGSGTKLEIK
notes: also called mAb002/cAb002
In the case of B9, the EC50 was 100 pM with human CD25 on cells [2], 274 pM in test [3] and 524 pM in test [4].

B10: PR031 (antibody, human IgG1, kappa, V domains shown)
VH: EVQLVQSGAEVKKPGASVKVSCKASGYTFTTYDINWMKQHPGKGLEWIGWIYPRDGSTKYNAKFKGKATLTEDTSANTAYMELSSLRSEDTAVYYCARERIYDGSFDYWGQGTTVTVSS
VL: DIVMTQSPDSLAVSLGERATINCKSSQRLFNSRDQKNYLAWYQQKPGQPPKLLIYGASTRESGVPDRFSGSGSGTDFTLTISSLQAEDVAVYYCQNDHIYPLTFGQGTKLEIKR
With B10, the “ADCC activity, Multiple … (vs. IgG)” value in the test with human CD25 on cells [1] turned out to be 192 fold.

B11: PR071 (antibody, human IgG1, kappa, V domains shown)
VH: EVQLVQSGSELKKPGASVKVSCKASGYTFTDYYINWVRQAPGQGLEWMAWIFPGNGNTYFNENFKDRVTLTADKFSSTAYMELSSLRSEDTAVYYCARATYDHGGYWYFDVWGQGTTVTVSS
VL: EIVLSQSPATLSLSPGERATLSCRASSSVSHIHWYQQKPGSSPKPWIYATSNLASGVPGRFSGSGSGTSYSLTVSRVEAEDAATYYCQHWNSFTFGGGTKVEIKR
Turning to B11, the “ADCC activity, Multiple … (vs. IgG)” value with human CD25 on cells [1] is 322 fold.

B12: cAb028 (antibody, human IgG1, V domains shown)
VH: EVQLQQSGAELVRPGASVKLSCTASGFNIKNDYVHWVKQRPEQGLEWIGYIDPDNGDTEYASKFLGKATITADTSSNTAYLQLSSLTSEGTAVYYCTTDDTSYGMFACWGLGTLVTVSA
VL: DVLMTQTPLSLPVSLGDQASISCRSSQSIVHSNGNTYLEWYLQKPGQSPKLLIYKVSNRFSGVPDRFSGSGSGTDFTLKISRVEAEDLGVYYCFQGSHVPWTFGGGTKLEIK
notes: also called mAb028/cAb028
Take B12: the values for the EC50 (with human CD25 on cells [2]; in test [3]; in test [4]) were 132 pM, 344 pM and 230 pM, respectively.

B13: cAb046 (antibody, human IgG1, V domains shown)
VH: EVQLVESGGGLVKPGGSLKLSCAASGFTFSSYAMSWVRQTPEKRLEWVATISEGGSYTYYPDNVKGRFTISRDNARNNLYLQMSHLKSEDTAMYLCVRDNPWFAYWGQGTLVTVST
VL: DVLMTQTPLSLPVSLGDRASISCRSSQNIVHSNGNTYLEWFLQKPGQSPKLLIYKVSKRFSGVPDRFSGSGSGTDFTLKISRVEAEDLGVYYCFQGSHVPYTFGGGTKLEIK
notes: also called mAb046/cAb046
As to B13, the EC50 with human CD25 on cells [2] worked out at 346 pM; in test [3] it was 355 pM; in test [4], 5570 pM.

B14: cAb004 (antibody, human IgG1, V domains shown)
VH: EVQLQQSGAELVRPGASVKLSCTASGFNIKDDYIQWVKQRPEQGLEWIGWIDPENGDTEYASKFQDKATITSDTSSNTAYLQLSSLTSEDTAVYYCAATTFYASNYGFAYWGQGTLVTVSA
VL: DVVMTQTPLSLPVSLGDQASISCRSSQSLVHSNGNTYLHWYLQKPGQSPQLLIYKVSNRFSGVPDRFSGSGSGTDFTLKISRLEAEDLGVYFCSQSTHVPYTFGGGTKLEIK
notes: also called mAb004/cAb004
Turning to B14, the results for the EC50 (with human CD25 on cells [2]; in test [3]; in test [4]) were 168 pM, 255 pM and 311 pM, respectively.

A word on the EC50: it is the midpoint of the concentration-response curve.
